Like-named read-outs stand apart in the source and are kept apart here.
How the values were obtained:
[1] = target: human proinsulin (human); assay: ELISA
[2] = target: insulin from porcine pancreas (porcine); assay: ELISA
[3] = target: recombinant human IGF-II (human); assay: ELISA
[4] = target: insulin from porcine pancreas (porcine)

Sequence of human recombinant decorin protein core (P07585 31-359): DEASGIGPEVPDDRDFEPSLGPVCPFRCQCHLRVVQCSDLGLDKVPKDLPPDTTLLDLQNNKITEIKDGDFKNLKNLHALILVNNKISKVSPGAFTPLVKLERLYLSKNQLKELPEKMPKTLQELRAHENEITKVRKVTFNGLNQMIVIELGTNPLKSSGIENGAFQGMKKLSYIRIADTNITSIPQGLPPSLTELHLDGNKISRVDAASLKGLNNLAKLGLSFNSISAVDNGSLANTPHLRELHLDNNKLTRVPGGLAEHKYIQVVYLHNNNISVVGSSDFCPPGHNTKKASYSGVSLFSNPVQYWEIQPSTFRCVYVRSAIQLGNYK
Sequence of insulin from porcine pancreas (porcine) (P01315 25-54, chain 1 of 2): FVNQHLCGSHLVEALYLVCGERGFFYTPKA
Sequence of insulin from porcine pancreas (porcine) (P01315 88-108, chain 2 of 2): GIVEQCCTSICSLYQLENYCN
Sequence of recombinant human IGF-II (human) (P01344 25-91): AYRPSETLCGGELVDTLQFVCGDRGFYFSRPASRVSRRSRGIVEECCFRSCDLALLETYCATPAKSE
Sequence of decorin proteoglycan (P07585 31-359): as the sequence (P07585 31-359) above

Row | Kd [1] [nM] | Kd [2] [nM] | Kd [3] [nM] | Kd [4] [nM] | Substance
1 | 9.3 | 3.1 | 1.5 | – | human recombinant decorin protein core (from UniProt P07585 31-359) (natural protein)
2 | – | – | – | 13.4 | decorin proteoglycan (from UniProt P07585 31-359) (natural protein)

— article PMC4039619
